Measurements from patent US12630600B2 (MEDIMMUNE LIMITED, priority 2022, dated 2026).
Starred links: 1 amine or outer side, 2 acyl side, 3 side chain; linkers in the order of their positions; H or OH if unused. Non-standard residues stand in square brackets, D forms with d. Groups on a side chain read outwards from the residue. No end group written: not given here. *: point of attachment. C20 diacid = O=C(O)CCCCCCCCCCCCCCCCCCC(=O)*; C18 diacid = O=C(O)CCCCCCCCCCCCCCCCC(=O)*; γGlu = O=C(O)[C@H](CCC(=O)[*:2])N[*:1]; αMeF = C[C@](N)(Cc1ccccc1)C(=O)O; AEEA = NCCOCCOCC(=O)O; Aib = CC(C)(N)C(=O)O

B1: Peptide 456 (peptide)
peptide: H[Aib]QGTFTSDVSK[αMeF]LDRK([AEEA-AEEA-γGlu-C20 diacid])RAQDFVRWLL[Aib]E-NH2
modifications: N-terminus assumed
SMILES: CC(C)C[C@H](NC(=O)[C@H](Cc1c[nH]c2ccccc12)NC(=O)[C@H](CCCNC(=N)N)NC(=O)[C@@H](NC(=O)[C@H](Cc1ccccc1)NC(=O)[C@H](CC(=O)O)NC(=O)[C@H](CCC(N)=O)NC(=O)[C@H](C)NC(=O)[C@H](CCCNC(=N)N)NC(=O)[C@H](CCCCNC(=O)COCCOCCNC(=O)COCCOCCNC(=O)CC[C@H](NC(=O)CCCCCCCCCCCCCCCCCCC(=O)O)C(=O)O)NC(=O)[C@H](CCCNC(=N)N)NC(=O)[C@H](CC(=O)O)NC(=O)[C@H](CC(C)C)NC(=O)[C@](C)(Cc1ccccc1)NC(=O)[C@H](CCCCN)NC(=O)[C@H](CO)NC(=O)[C@@H](NC(=O)[C@H](CC(=O)O)NC(=O)[C@H](CO)NC(=O)[C@@H](NC(=O)[C@H](Cc1ccccc1)NC(=O)[C@@H](NC(=O)CNC(=O)[C@H](CCC(N)=O)NC(=O)C(C)(C)NC(=O)[C@@H](N)Cc1c[nH]cn1)[C@@H](C)O)[C@@H](C)O)C(C)C)C(C)C)C(=O)N[C@@H](CC(C)C)C(=O)NC(C)(C)C(=O)N[C@@H](CCC(=O)O)C(N)=O
B2: Peptide 452 (peptide)
peptide: H[Aib]QGTFTSDVSK[αMeF]LDKK([AEEA-AEEA-γGlu-C20 diacid])RALDFVRWLL[Aib]E-NH2
modifications: N-terminus assumed
SMILES: CC(C)C[C@H](NC(=O)[C@H](C)NC(=O)[C@H](CCCNC(=N)N)NC(=O)[C@H](CCCCNC(=O)COCCOCCNC(=O)COCCOCCNC(=O)CC[C@H](NC(=O)CCCCCCCCCCCCCCCCCCC(=O)O)C(=O)O)NC(=O)[C@H](CCCCN)NC(=O)[C@H](CC(=O)O)NC(=O)[C@H](CC(C)C)NC(=O)[C@](C)(Cc1ccccc1)NC(=O)[C@H](CCCCN)NC(=O)[C@H](CO)NC(=O)[C@@H](NC(=O)[C@H](CC(=O)O)NC(=O)[C@H](CO)NC(=O)[C@@H](NC(=O)[C@H](Cc1ccccc1)NC(=O)[C@@H](NC(=O)CNC(=O)[C@H](CCC(N)=O)NC(=O)C(C)(C)NC(=O)[C@@H](N)Cc1c[nH]cn1)[C@@H](C)O)[C@@H](C)O)C(C)C)C(=O)N[C@@H](CC(=O)O)C(=O)N[C@@H](Cc1ccccc1)C(=O)N[C@H](C(=O)N[C@@H](CCCNC(=N)N)C(=O)N[C@@H](Cc1c[nH]c2ccccc12)C(=O)N[C@@H](CC(C)C)C(=O)N[C@@H](CC(C)C)C(=O)NC(C)(C)C(=O)N[C@@H](CCC(=O)O)C(N)=O)C(C)C
B3: Peptide 450 (peptide)
peptide: H[Aib]QGTFTSDVSK[αMeF]LDKK([AEEA-AEEA-γGlu-γGlu-C18 diacid])RAQDFVRWLLE[Aib]G-OH
modifications: N-terminus assumed
SMILES: CC(C)C[C@H](NC(=O)[C@H](Cc1c[nH]c2ccccc12)NC(=O)[C@H](CCCNC(=N)N)NC(=O)[C@@H](NC(=O)[C@H](Cc1ccccc1)NC(=O)[C@H](CC(=O)O)NC(=O)[C@H](CCC(N)=O)NC(=O)[C@H](C)NC(=O)[C@H](CCCNC(=N)N)NC(=O)[C@H](CCCCNC(=O)COCCOCCNC(=O)COCCOCCNC(=O)CC[C@H](NC(=O)CC[C@H](NC(=O)CCCCCCCCCCCCCCCCC(=O)O)C(=O)O)C(=O)O)NC(=O)[C@H](CCCCN)NC(=O)[C@H](CC(=O)O)NC(=O)[C@H](CC(C)C)NC(=O)[C@](C)(Cc1ccccc1)NC(=O)[C@H](CCCCN)NC(=O)[C@H](CO)NC(=O)[C@@H](NC(=O)[C@H](CC(=O)O)NC(=O)[C@H](CO)NC(=O)[C@@H](NC(=O)[C@H](Cc1ccccc1)NC(=O)[C@@H](NC(=O)CNC(=O)[C@H](CCC(N)=O)NC(=O)C(C)(C)NC(=O)[C@@H](N)Cc1c[nH]cn1)[C@@H](C)O)[C@@H](C)O)C(C)C)C(C)C)C(=O)N[C@@H](CC(C)C)C(=O)N[C@@H](CCC(=O)O)C(=O)NC(C)(C)C(=O)NCC(=O)O
B4: Peptide 453 (peptide)
peptide: H[Aib]QGTFTSDVSK[αMeF]LDKK([AEEA-AEEA-γGlu-C20 diacid])RAQDFVRWLLE[Aib]G-NH2
B5: Peptide 451 (peptide)
peptide: H[Aib]QGTFTSDVSK[αMeF]LDKK([AEEA-AEEA-γGlu-C20 diacid])RARDFVLWLL[Aib]E-NH2
modifications: N-terminus assumed
SMILES: CC(C)C[C@H](NC(=O)[C@H](Cc1c[nH]c2ccccc12)NC(=O)[C@H](CC(C)C)NC(=O)[C@@H](NC(=O)[C@H](Cc1ccccc1)NC(=O)[C@H](CC(=O)O)NC(=O)[C@H](CCCNC(=N)N)NC(=O)[C@H](C)NC(=O)[C@H](CCCNC(=N)N)NC(=O)[C@H](CCCCNC(=O)COCCOCCNC(=O)COCCOCCNC(=O)CC[C@H](NC(=O)CCCCCCCCCCCCCCCCCCC(=O)O)C(=O)O)NC(=O)[C@H](CCCCN)NC(=O)[C@H](CC(=O)O)NC(=O)[C@H](CC(C)C)NC(=O)[C@](C)(Cc1ccccc1)NC(=O)[C@H](CCCCN)NC(=O)[C@H](CO)NC(=O)[C@@H](NC(=O)[C@H](CC(=O)O)NC(=O)[C@H](CO)NC(=O)[C@@H](NC(=O)[C@H](Cc1ccccc1)NC(=O)[C@@H](NC(=O)CNC(=O)[C@H](CCC(N)=O)NC(=O)C(C)(C)NC(=O)[C@@H](N)Cc1c[nH]cn1)[C@@H](C)O)[C@@H](C)O)C(C)C)C(C)C)C(=O)N[C@@H](CC(C)C)C(=O)NC(C)(C)C(=O)N[C@@H](CCC(=O)O)C(N)=O
B6: Peptide 460 (peptide)
peptide: H[Aib]QGTFTSDVSK[αMeF]LDKK([AEEA-AEEA-γGlu-C20 diacid])RAQDFVRWLLAE-NH2
B7: Peptide 455 (peptide)
peptide: H[Aib]QGTFTSDVSK[αMeF]LDKK([AEEA-AEEA-γGlu-γGlu-C20 diacid])RAQDFVRWLL[Aib]E-NH2
modifications: N-terminus assumed
SMILES: CC(C)C[C@H](NC(=O)[C@H](Cc1c[nH]c2ccccc12)NC(=O)[C@H](CCCNC(=N)N)NC(=O)[C@@H](NC(=O)[C@H](Cc1ccccc1)NC(=O)[C@H](CC(=O)O)NC(=O)[C@H](CCC(N)=O)NC(=O)[C@H](C)NC(=O)[C@H](CCCNC(=N)N)NC(=O)[C@H](CCCCNC(=O)COCCOCCNC(=O)COCCOCCNC(=O)CC[C@H](NC(=O)CC[C@H](NC(=O)CCCCCCCCCCCCCCCCCCC(=O)O)C(=O)O)C(=O)O)NC(=O)[C@H](CCCCN)NC(=O)[C@H](CC(=O)O)NC(=O)[C@H](CC(C)C)NC(=O)[C@](C)(Cc1ccccc1)NC(=O)[C@H](CCCCN)NC(=O)[C@H](CO)NC(=O)[C@@H](NC(=O)[C@H](CC(=O)O)NC(=O)[C@H](CO)NC(=O)[C@@H](NC(=O)[C@H](Cc1ccccc1)NC(=O)[C@@H](NC(=O)CNC(=O)[C@H](CCC(N)=O)NC(=O)C(C)(C)NC(=O)[C@@H](N)Cc1c[nH]cn1)[C@@H](C)O)[C@@H](C)O)C(C)C)C(C)C)C(=O)N[C@@H](CC(C)C)C(=O)NC(C)(C)C(=O)N[C@@H](CCC(=O)O)C(N)=O
B8: Peptide 449 (peptide)
peptide: H[Aib]QGTFTSDVSK[αMeF]LDTK([AEEA-AEEA-γGlu-γGlu-C20 diacid])RARDFVQWLLE[Aib]G-OH
modifications: N-terminus assumed
SMILES: CC(C)C[C@H](NC(=O)[C@H](Cc1c[nH]c2ccccc12)NC(=O)[C@H](CCC(N)=O)NC(=O)[C@@H](NC(=O)[C@H](Cc1ccccc1)NC(=O)[C@H](CC(=O)O)NC(=O)[C@H](CCCNC(=N)N)NC(=O)[C@H](C)NC(=O)[C@H](CCCNC(=N)N)NC(=O)[C@H](CCCCNC(=O)COCCOCCNC(=O)COCCOCCNC(=O)CC[C@H](NC(=O)CC[C@H](NC(=O)CCCCCCCCCCCCCCCCCCC(=O)O)C(=O)O)C(=O)O)NC(=O)[C@@H](NC(=O)[C@H](CC(=O)O)NC(=O)[C@H](CC(C)C)NC(=O)[C@](C)(Cc1ccccc1)NC(=O)[C@H](CCCCN)NC(=O)[C@H](CO)NC(=O)[C@@H](NC(=O)[C@H](CC(=O)O)NC(=O)[C@H](CO)NC(=O)[C@@H](NC(=O)[C@H](Cc1ccccc1)NC(=O)[C@@H](NC(=O)CNC(=O)[C@H](CCC(N)=O)NC(=O)C(C)(C)NC(=O)[C@@H](N)Cc1c[nH]cn1)[C@@H](C)O)[C@@H](C)O)C(C)C)[C@@H](C)O)C(C)C)C(=O)N[C@@H](CC(C)C)C(=O)N[C@@H](CCC(=O)O)C(=O)NC(C)(C)C(=O)NCC(=O)O
B9: Peptide 454 (peptide)
peptide: H[Aib]QGTFTSDVSK[αMeF]LDKK([AEEA-AEEA-γGlu-C20 diacid])RAQDFVRWLEA[Aib]G-NH2
modifications: N-terminus assumed
SMILES: CC(C)C[C@H](NC(=O)[C@H](Cc1c[nH]c2ccccc12)NC(=O)[C@H](CCCNC(=N)N)NC(=O)[C@@H](NC(=O)[C@H](Cc1ccccc1)NC(=O)[C@H](CC(=O)O)NC(=O)[C@H](CCC(N)=O)NC(=O)[C@H](C)NC(=O)[C@H](CCCNC(=N)N)NC(=O)[C@H](CCCCNC(=O)COCCOCCNC(=O)COCCOCCNC(=O)CC[C@H](NC(=O)CCCCCCCCCCCCCCCCCCC(=O)O)C(=O)O)NC(=O)[C@H](CCCCN)NC(=O)[C@H](CC(=O)O)NC(=O)[C@H](CC(C)C)NC(=O)[C@](C)(Cc1ccccc1)NC(=O)[C@H](CCCCN)NC(=O)[C@H](CO)NC(=O)[C@@H](NC(=O)[C@H](CC(=O)O)NC(=O)[C@H](CO)NC(=O)[C@@H](NC(=O)[C@H](Cc1ccccc1)NC(=O)[C@@H](NC(=O)CNC(=O)[C@H](CCC(N)=O)NC(=O)C(C)(C)NC(=O)[C@@H](N)Cc1c[nH]cn1)[C@@H](C)O)[C@@H](C)O)C(C)C)C(C)C)C(=O)N[C@@H](CCC(=O)O)C(=O)N[C@@H](C)C(=O)NC(C)(C)C(=O)NCC(N)=O

target: human glucagon receptor (human, UniProt P47871); experiment: cell-based or functional assay

Binder	cAMP production EC50 [nM]
B1	0.0803
B2	0.151
B3	0.0578
B4	0.162
B5	0.503
B6	0.0665
B7	0.114
B8	0.242
B9	0.274

target: human GLP-1 receptor (human, UniProt P43220); experiment: cell-based or functional assay

Binder	cAMP production EC50 [nM]
B1	0.133
B2	0.495
B3	0.0573
B4	0.17
B5	0.895
B6	0.117
B7	0.127
B8	0.207
B9	0.173
